Series [1] deals with T1, α-fructosyl-valyl-histidyl-leucyl-threonyl-proryl-glutamic acid.
T1 chain: VHLTPE
As to conditions: for αF6P oxidation activity: scale: relative value.

Series [2] deals with T2, α-fructosyl-valyl-histidine.
T2 chain: VH

B1: PnFX-62D/106K/110L/113K (protein)
chain: MAPSRANTSVIVVGGGGTIGSSTALHLVRSGYTPSNVTVLDAYPIPSSQSAGNDLNKIMGVDLRNPVDLQLALEARQMWNEDELFKKFFHNTGRLDCAHGEKDIAKLKSLYQKLVDAGLDATNEWLDSEDEILKRMPLLSRDQIKGWKAIFSKDGGWLAAAKAINAVGEYLRDQGVRFGFYGAGSFKAPLLAEGVCIGVETVDGTRYYADKVVLAAGAWSPTLVELHEQCVSKAWVYGHIQLTPEEAARYKNSPVVYNGDVGFFFEPNEHGVIKVCDEFPGFTRFKMHQPFGAKAPKRISVPRSHAKHPTDTIPDASDVSIRRAIATFMPQFKNKKMFNQAMCWCTDTADAALLICEHPEWKNFVLATGDSGHSFKLLPNIGKHVVELLEGTLADDLAHAWRWRPGSGDALKSRRSAPAKDLADMPGWNHDKPRANL
B1: in series [1], the Specific activity (U/mg), 1 mM αF6P was determined as 0.125 U/mg and the “specific activity on αF6P, fold over PnFX before mutation” value is on record as “specific activity on αF6P was elevated by 13.7 fold”.

B2: PnFX-62D/63H/106K/110L/113K/351S (protein)
chain: MAPSRANTSVIVVGGGGTIGSSTALHLVRSGYTPSNVTVLDAYPIPSSQSAGNDLNKIMGVDHRNPVDLQLALEARQMWNEDELFKKFFHNTGRLDCAHGEKDIAKLKSLYQKLVDAGLDATNEWLDSEDEILKRMPLLSRDQIKGWKAIFSKDGGWLAAAKAINAVGEYLRDQGVRFGFYGAGSFKAPLLAEGVCIGVETVDGTRYYADKVVLAAGAWSPTLVELHEQCVSKAWVYGHIQLTPEEAARYKNSPVVYNGDVGFFFEPNEHGVIKVCDEFPGFTRFKMHQPFGAKAPKRISVPRSHAKHPTDTIPDASDVSIRRAIATFMPQFKNKKMFNQAMCWCTDTADSALLICEHPEWKNFVLATGDSGHSFKLLPNIGKHVVELLEGTLADDLAHAWRWRPGSGDALKSRRSAPAKDLADMPGWNHDKPRANL
For the protein B2, the Specific activity (U/mg), 1 mM αF6P in series [1] was 0.667 U/mg.

B3: CFP-T7-H1 (protein)
chain: MTSNRADTRVIVVGGGGTIGSSTALHLVRSGYAPANITVLDTFEIPSAQSAGHDLNKIMGIALRNKVDLQMSLEARQMWKEDELFQPFFHNTGRMDCEHTPEGIEDLKKQYQALHDAGAGLEKTHAWLDNEDEILSKMPLLQRDQIQGWKAIWSQDGGWLAAAKAINAIGQFLKERGVKFGFGGAGSFKQPLFDDEGTTCIGVETADGTKYYADKVVLAAGAWSPTLVDLEDQCCSKAWVYAHIQLTPEEAAEYKGVPVVYNGEFGFFFEPDEFGVIKVCDEFPGFSRFKEHQPYGAPSPKRISVPRSHAKHPTDTYPDASEVSIKKAIATFLPRFQDKELFNRALCWCTDTADAALLMCEHPKWKNFILATGDSGHSFKILPNVGKYVVELIEGRLPEEMAYQWRWRPGGDALKSRRAAPPKDLADMPGWKHDPKL
B3: the αFVH oxidation activity result in series [2] is “exhibited αF6P oxidation activity, in addition αFV oxidation activity and αFVH oxidation activity”. This protein also yielded a αF6P oxidation activity in series [1] of 0.0316.

B4: CFP-T7-H4 (protein)
chain: MTSNRADTRVIVVGGGGTIGSSTALHLVRSGYAPANITVLDTFEIPSAQSAGHDLNKIMGIALRNKVDLQMSLEARQMWKEDELFQPFFHNTGRMDCEHTPEGIEDLKKYYQALHDAGAGLEKTHAWLDNEDEILSKMPLLQRDQIQGWKAIWSQDGGWLAAAKAINAIGQFLKERGVKFGFGGAGSFKQPLFDDEGTTCIGVETADGTKYYADKVVLAAGAWSPTLVDLEDQCCSKAWVYAHIQLTPEEAAEYKGVPVVYNGEFGFFFEPDEFGVIKVCDEFPGFSRFKEHQPYGAPSPKRISVPRSHAKHPTDTYPDASEVSIKKAIATFLPRFQDKELFNRALCWCTDTADAALLMCEHPKWKNFILATGDSGHSFKILPNVGKYVVELIEGRLPEEMAYQWRWRPGGDALKSRRAAPPKDLADMPGWKHDPKL
The protein B4 gave a αF6P oxidation activity in series [1] of 0.0341.

B5: CFP-T7-H21 (protein)
chain: MTSNRADTRVIVVGGGGTIGSSTALHLVRSGYAPANITVLDTFEIPSAQSAGHDLNKIMGIDLRNKVDLQMSLEARQMWKEDELFQPFFHNTGRMDCEHTPEGIEKLKKLYQRLHDAGAGLEKTHAWLDNEDEILSKMPLLQRDQIQGWKAIWSQDGGWLAAAKAINAIGQFLKERGVKFGFGGAGSFKQPLFDDEGTTCIGVETADGTKYYADKVVLAAGAWSPTLVDLEDQCCSKAWVYAHIQLTPEEAAEYKGVPVVYNGEFGFFFEPDEFGVIKVCDEFPGFSRFKEHQPYGAPSPKRISVPRSHAKHPTDTYPDASEVSIKKAIATFLPRFQDKELFNRALCWCTDTADAALLMCEHPKWKNFILATGDSGHSFKILPNVGKYVVELIEGRLPEEMAYQWRWRPGGDALKSRRAAPPKDLADMPGWKHDPKL
Turning to B5, the Specific activity (U/mg), 1 mM αFVH in series [2] worked out at 4.05 U/mg. Moreover, in series [1], the Specific activity (U/mg), 1 mM αF6P came to 0.795 U/mg and the αF6P oxidation activity was determined as 20.8.

B6: CFP-T7-H20 (protein)
chain: MTSNRADTRVIVVGGGGTIGSSTALHLVRSGYAPANITVLDTFEIPSAQSAGHDLNKIMGIDLRNKVDLQMSLEARQMWKEDELFQPFFHNTGRMDCEHTPEGIEKLKKLYQKLHDAGAGLEKTHAWLDNEDEILSKMPLLQRDQIQGWKAIWSQDGGWLAAAKAINAIGQFLKERGVKFGFGGAGSFKQPLFDDEGTTCIGVETADGTKYYADKVVLAAGAWSPTLVDLEDQCCSKAWVYAHIQLTPEEAAEYKGVPVVYNGEFGFFFEPDEFGVIKVCDEFPGFSRFKEHQPYGAPSPKRISVPRSHAKHPTDTYPDASEVSIKKAIATFLPRFQDKELFNRALCWCTDTADAALLMCEHPKWKNFILATGDSGHSFKILPNVGKYVVELIEGRLPEEMAYQWRWRPGGDALKSRRAAPPKDLADMPGWKHDPKL
For B6, the Specific activity (U/mg), 1 mM αFVH in series [2] is 4.28 U/mg. Further, in series [1], the Specific activity (U/mg), 1 mM αF6P is 0.85 U/mg; the αF6P oxidation activity ratio (relative value (CFP-T7-H20 = 100)) was determined as 100; the αF6P oxidation activity stood at 20.5.

B7: CFP-T7-H3 (protein)
chain: MTSNRADTRVIVVGGGGTIGSSTALHLVRSGYAPANITVLDTFEIPSAQSAGHDLNKIMGIALRNKVDLQMSLEARQMWKEDELFQPFFHNTGRMDCEHTPEGIEDLKKFYQALHDAGAGLEKTHAWLDNEDEILSKMPLLQRDQIQGWKAIWSQDGGWLAAAKAINAIGQFLKERGVKFGFGGAGSFKQPLFDDEGTTCIGVETADGTKYYADKVVLAAGAWSPTLVDLEDQCCSKAWVYAHIQLTPEEAAEYKGVPVVYNGEFGFFFEPDEFGVIKVCDEFPGFSRFKEHQPYGAPSPKRISVPRSHAKHPTDTYPDASEVSIKKAIATFLPRFQDKELFNRALCWCTDTADAALLMCEHPKWKNFILATGDSGHSFKILPNVGKYVVELIEGRLPEEMAYQWRWRPGGDALKSRRAAPPKDLADMPGWKHDPKL
Take B7: the αF6P oxidation activity in series [1] amounted to 0.0298.

B8: fructosyl amino acid oxidase derived from Aspergillus nidulans resulting from substitution of serine at position 59 with glycine (protein)
chain: MTPRANTKIIVVGGGGTMGSSTALHLLRAGYTPSNITVLDTCPIPSAQSAGYDLNKIMGIRLRNKPDLQLSLEALDMWKNDPLFKPFFHNVGMIDVSSTEEGIEGLRKKYQSLLDAGIGLEKTNFMLESEDEILAKAPHFTQEQIKGWKGLFCGDGGWLAAAKAINAIGQFLKEQGVKFGFGGAGTFKKPLFADAHEKTCIGVETVDGTKYYADKVVLAAGAWSSTLVDLEEQCVSKAWVFAHIQLTPAEAAAYKNTPVIYDGDYGFFFEPNENGIIKVCDEFPGFTHFKMHQPYGSPAPKPISVPRSHAKHPTDTYPHASEVTIKKAINRFLPRFNDKELFNRAMCWCTDTADANLLVCEHPRWKGFYLATGDSGHSFKLLPNIGKHVVELLEERLESVFKDAWRWRPGSGDALKSRRAAPAKDLADMPGWRNEAKM
In series [1], B8 showed a Specific activity (U/mg), 1 mM αF6P of 0 U/mg.

B9: AnFX-61D/62H/101K/105K/109L/112K/355S (protein)
chain: MTPRANTKIIVVGGGGTMGSSTALHLLRAGYTPSNITVLDTCPIPSAQSAGYDLNKIMGIDHRNKPDLQLSLEALDMWKNDPLFKPFFHNVGMIDVSSTEKGIEKLRKLYQKLLDAGIGLEKTNFMLESEDEILAKAPHFTQEQIKGWKGLFCGDGGWLAAAKAINAIGQFLKEQGVKFGFGGAGTFKKPLFADAHEKTCIGVETVDGTKYYADKVVLAAGAWSSTLVDLEEQCVSKAWVFAHIQLTPAEAAAYKNTPVIYDGDYGFFFEPNENGIIKVCDEFPGFTHFKMHQPYGSPAPKPISVPRSHAKHPTDTYPHASEVTIKKAINRFLPRFNDKELFNRAMCWCTDTADSNLLVCEHPRWKGFYLATGDSGHSFKLLPNIGKHVVELLEERLESVFKDAWRWRPGSGDALKSRRAAPAKDLADMPGWRNEAKM
As for B9, the Specific activity (U/mg), 1 mM αF6P in series [1] came out at 0.283 U/mg.

B10: AnFX-61D/105K/109L (protein)
chain: MTPRANTKIIVVGGGGTMGSSTALHLLRAGYTPSNITVLDTCPIPSAQSAGYDLNKIMGIDLRNKPDLQLSLEALDMWKNDPLFKPFFHNVGMIDVSSTEEGIEKLRKLYQSLLDAGIGLEKTNFMLESEDEILAKAPHFTQEQIKGWKGLFCGDGGWLAAAKAINAIGQFLKEQGVKFGFGGAGTFKKPLFADAHEKTCIGVETVDGTKYYADKVVLAAGAWSSTLVDLEEQCVSKAWVFAHIQLTPAEAAAYKNTPVIYDGDYGFFFEPNENGIIKVCDEFPGFTHFKMHQPYGSPAPKPISVPRSHAKHPTDTYPHASEVTIKKAINRFLPRFNDKELFNRAMCWCTDTADANLLVCEHPRWKGFYLATGDSGHSFKLLPNIGKHVVELLEERLESVFKDAWRWRPGSGDALKSRRAAPAKDLADMPGWRNEAKM
In the case of B10, in series [1], the Specific activity (U/mg), 1 mM αF6P was found to be 0.106 U/mg.

B11: amadoriase exhibiting 95% sequence identity with ketoamine oxidase derived from Curvularia clavata (protein)
chain: MAPSRANTSVIVVGGGGTIGSSTALHLVRSGYTPSNITVLDAYPIPSSQSAGNDLNKIMGIRLRNKVDLQLSLEARQMWREDDLFKEYFHNTGRLDCAHGEEGLADLRQAYQALLDANAGLEETTEWLDSEDEILKKMPLLSRDQIKGWKAVYSQDGGWLAAAKAINAIGEYLRAQGVKFGFGGAGSFKQPLLAEGVCIGVETVDGTRYYADKVVLAAGAWSPTLVELHEQCVSKAWVYGHIQLTPEEAAEYKNSPVVYNGDVGFFFEPNEHGVIKVCDEFPGFTRFKMHQPFGAKAPKRISVPRSHAKHPTDTIPDASEKSIRKAIATFLPKFTEKELFNRHLCWCTDTADAALLICEHPEWKNFVLATGDSGHSFKLLPNIGKHVVELLEGTLADDLAHAWRWRPGSGDALKSRRSAPAKDLADMPGWKHDDVVKSKL
On to B11, for which, in series [1], the αF6P oxidation activity worked out at 0.

B12: Cc95FX-62D/63H/106K/110L/113K/353S (protein)
chain: MAPSRANTSVIVVGGGGTIGSSTALHLVRSGYTPSNITVLDAYPIPSSQSAGNDLNKIMGIDHRNKVDLQLSLEARQMWREDDLFKEYFHNTGRLDCAHGEEGLAKLRQLYQKLLDANAGLEETTEWLDSEDEILKKMPLLSRDQIKGWKAVYSQDGGWLAAAKAINAIGEYLRAQGVKFGFGGAGSFKQPLLAEGVCIGVETVDGTRYYADKVVLAAGAWSPTLVELHEQCVSKAWVYGHIQLTPEEAAEYKNSPVVYNGDVGFFFEPNEHGVIKVCDEFPGFTRFKMHQPFGAKAPKRISVPRSHAKHPTDTIPDASEKSIRKAIATFLPKFTEKELFNRHLCWCTDTADSALLICEHPEWKNFVLATGDSGHSFKLLPNIGKHVVELLEGTLADDLAHAWRWRPGSGDALKSRRSAPAKDLADMPGWKHDDVVKSKL
Turning to B12, in series [1], the αF6P oxidation activity was 237.
